Source: patent publication US11789019B2 (priority 2014, dated 2023)
Entries after “also recorded” stand apart in the source; their conditions may differ. Where two headings read alike, the source gives them in different places.

Key:
1807 cells [1] = assay type: cell-based, mouse; conditions: calnexin peptide #1 13 amino acid sequence of the named species
[2] = system: calnexin peptide #1-specific CD4+ T cells; assay type: in vivo, mouse
[3] = system: B. dermatitidis strain 26199; assay type: in vivo, Blastomyces dermatitidis
[4] = target: recombinant Calnexin (Paracoccidioides brasiliensis Calnexin with C-terminal 6xHis tag, from E. coli) (Paracoccidioides brasiliensis)
1807 cells [5] = test: In vivo activation and proliferation of adoptively transferred 1807 cells; conditions: emulsified in complete Freund's adjuvant; CD44, CFSE
human CD4+ T cells = test: In vitro stimulation and identification of activated human T cells (PBMC, CD154 enrichment, CD137); assay type: cell-based
[6] = 10 μg/ml, CD137 on CD154 enriched CD4+ cells, positive >3-fold over medium alone

LVLKNEAAHHAIS (listed as Pneumocystis carinii) [Pneumocystis carinii_Rat Form 1]
1807 reactive (1807 cells [1]; listed as SEQ ID NO: 6): not reactive

LVMKSRASHYAIS (Candida albicans) [Candida albicans_5314]
1807 reactive (1807 cells [1]; listed as SEQ ID NO: 9): not reactive

LVVKNPAAHHAIS (Blastomyces dermatitidis of strains 26199, 18808, Er-3, 14081; Histoplasma capsulatum of strains G186AR, Nam1, H88, H143; Aspergillus sp.1 of strain group.1; Arthroderma; listed as Ajellomyces capsulatus, listed as Ajellomyces dermatitidis, listed as Arthroderma benhamiae) [Peptide #1, synthetic 13 aa peptide, residues 103-115 of B. dermatitidis calnexin]
calnexin-specific T cells vs. number of cells in control mice ([2]; delivery via the i.v. route): more than 20 fold | pool of calnexin-specific T cells in the draining lymph nodes and spleen ([2]; delivery via the i.v. route): > 1000 cells | tetramer positive CD4+ T cells per animal ([2]; naïve C57BL/6 mice): 30 | protection against infection compared to preceding approaches ([3]; i.v. delivery of calnexin peptide): vaccine efficacy was unchanged

1807 T-cell receptor (Blastomyces-specific TCR transgenic 1807 CD4+ T cells)
activation (CD44) and proliferation (CFSE) of adoptively transferred 1807 cells in vivo [4]: 85%

LVLKSRAKHHAIS (listed as Homo sapiens) [SEQ ID NO: 10, reference compound]
1807 reactive (1807 cells [1]): not reactive

B1: rCalnexin: recombinant Paracoccidioides brasiliensis Calnexin with C-terminal 6×His tag expressed in E. coli, 63 kD (protein)
chain: MRLNASLASLILSSIALIGNVHAEDEVKEDATSTSSVIEKPTFTPTTLKAPFLEQFTDGWETRWTPSHAKKEDSKSEEDWAYVGTWAVEEPHVFNGMVGDKGLVVKNPAAHHAISAKFPKKIDNKGKTLVVQYEVKLQNSLNCGGAYMKLLQDNKKLHAEEFSNTSPYVIMFGPDKCGVTNKVHFIFKHKNPKTGEYEEKHMKLPPAVRVSKLSTLYTLIVNPDQSFQIRIDGAAVKNGTLLEDFSPAVNPEKEIDDPEDKKPEDWVDEAHIPDPEATKPEDWDEDAPYEIVDTDATQPEDWLVDEPTSIPDPEAQKPEDWDDEEDGDWIPPTIPNPKCSEVSGCGMWEPPMKKNPEYKGKWTAPMIDNPAYKGPWAPRKIANPNYFEDKTPSNFEPMGAIGFEIWTMQNDILFDNIYIGHSVEDAEKLKAETWDLKHPVEVAEEEAARPKDEEKKEGTLSFKEAPVKYIRGKIELFISLALENPVEAVKAVPEVAGGLGALLVTLVLIIVGAVGLGSPSPAPAAKKQAEKGKEKTAEAVSTAADNVKGEAKKRSGKAGE
tetramer-positive cells displaying CCR6 or CXCR3 ([2]; draining lymph nodes after vaccination): 15-20% | proportion of CD44+ CD4+ T cells recruited to lung that are tetramer positive ([2]; mouse, in vivo): more than doubles | tetramer positive lung cells that produced IL-17 ([2]; mouse, in vivo): about 50 | tetramer-positive cells recruited to the lung that were IL-17 producers ([2]; mouse, in vivo): ~30% | transferred 1807 cells activated and proliferating (1807 cells [5]): > 85% | immune subjects that responded (human CD4+ T cells; [6]): five of six | non-immune subjects that responded (human CD4+ T cells; [6]): One of four | concentration dependence of CD4+ T cell response (human CD4+ T cells; immune subjects): dose-dependent; also recorded: concentration-dependent manner | frequency of activated (CD154) cells compared with Hsp60 (human CD4+ T cells; immune subjects): similar | response in the presence of polymyxin B (LPS contribution) (human CD4+ T cells; immune subjects): not due to contaminating LPS; also recorded: retained in the presence of polymyxin B | survival ([3]; in vivo): prolonged survival
